Reference: US7338932

What was measured:
[1] = molecular target: T1, MUC2 acceptor peptide (PTTTPISTTTMVTPTPTPTC)
T1 chain: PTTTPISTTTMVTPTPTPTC

[2] = molecular target: T2, EA2 acceptor peptide (PTTDSTTPAPTTK)
T2 chain: PTTDSTTPAPTTK

[3] = molecular target: T3, MUC7 acceptor peptide (Ac-CPPTPSATTPAPPSSSAPPETTAA)
T3 chain: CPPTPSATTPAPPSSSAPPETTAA

B1: human recombinant GalNAc-T3 (enzyme source of Example 6) (protein)
chain: MERNMKNKNKMLDLMLEAVNNIKDAMPKMQIGAPVRQNIDAGERPCLQGYYTAAELKPVLDRPPQDSNAPGASGKAFKTTNLSVEEQKEKERGEAKHCFNAFASDRISLHRDLGPDTRPPECIEQKFKRCPPLPTTSVIIVFHNEAWSTLLRTVHSVLYSSPAILLKEIILVDDASVDEYLHDKLDEYVKQFSIVKIVRQRERKGLITARLLGATVATAETLTFLDAHCECFYGWLEPLLARIAENYTAVVSPDIASIDLNTFEFNKPSPYGSNHNRGNFDWSLSFGWESLPDHEKQRRKDETYPIKTPTFAGGLFSISKEYFEYIGSYDEEMEIWGGENIEMSFRVWQCGGQLEIMPCSVVGHVFRSKSPHSFPKGTQVIARNQVRLAEVWMDEYKEIFYRRNTDAAKIVKQKAFGDLSKRFEIKHRLQCKNFTWYLNNIYPEVYVPDLNPVISGYIKSVGQPLCLDVGENNQGGKPLIMYTCHGLGGNQYFEYSAQHEIRHNIQKELCLHAAQGLVQLKACTYKGHKTVVTGEQIWEIQKDQLLYNPFLKMCLSANGEHPSLVSCNPSDPLQKWILSQND
galactosyltransferase activity with UDP-Gal [1]: Muc2, 0 nmol/min/ml
galactosyltransferase activity with UDP-Gal [2]: EA2, 6.8 nmol/min/ml
galactosyltransferase activity with UDP-Gal [3]: Muc7, 0.1 nmol/min/ml
